Experimental data from patent US20090130105A1.

Key:
[1] = target: human IGF-1R(1-903)-Fc (human) (UniProt P08069); experiment: ELISA on hIGF-1R-Fc; competitor Zenon-labeled αIR3; +++++ = 90-100%
[2] = target: human IGF-1R(1-903)-Fc (human) (UniProt P08069); experiment: ELISA on hIGF-1R-Fc; competitor biotinylated M14-G11; +++++ = 90-100%
[3] = target: human IGF-1R(1-903)-Fc (human) (UniProt P08069); experiment: ELISA, blocking of 320 nM IGF-1 His on biotinylated hIGF-1R-Fc

Sequence of human IGF-1R(1-903)-Fc (human) (P08069 31-933): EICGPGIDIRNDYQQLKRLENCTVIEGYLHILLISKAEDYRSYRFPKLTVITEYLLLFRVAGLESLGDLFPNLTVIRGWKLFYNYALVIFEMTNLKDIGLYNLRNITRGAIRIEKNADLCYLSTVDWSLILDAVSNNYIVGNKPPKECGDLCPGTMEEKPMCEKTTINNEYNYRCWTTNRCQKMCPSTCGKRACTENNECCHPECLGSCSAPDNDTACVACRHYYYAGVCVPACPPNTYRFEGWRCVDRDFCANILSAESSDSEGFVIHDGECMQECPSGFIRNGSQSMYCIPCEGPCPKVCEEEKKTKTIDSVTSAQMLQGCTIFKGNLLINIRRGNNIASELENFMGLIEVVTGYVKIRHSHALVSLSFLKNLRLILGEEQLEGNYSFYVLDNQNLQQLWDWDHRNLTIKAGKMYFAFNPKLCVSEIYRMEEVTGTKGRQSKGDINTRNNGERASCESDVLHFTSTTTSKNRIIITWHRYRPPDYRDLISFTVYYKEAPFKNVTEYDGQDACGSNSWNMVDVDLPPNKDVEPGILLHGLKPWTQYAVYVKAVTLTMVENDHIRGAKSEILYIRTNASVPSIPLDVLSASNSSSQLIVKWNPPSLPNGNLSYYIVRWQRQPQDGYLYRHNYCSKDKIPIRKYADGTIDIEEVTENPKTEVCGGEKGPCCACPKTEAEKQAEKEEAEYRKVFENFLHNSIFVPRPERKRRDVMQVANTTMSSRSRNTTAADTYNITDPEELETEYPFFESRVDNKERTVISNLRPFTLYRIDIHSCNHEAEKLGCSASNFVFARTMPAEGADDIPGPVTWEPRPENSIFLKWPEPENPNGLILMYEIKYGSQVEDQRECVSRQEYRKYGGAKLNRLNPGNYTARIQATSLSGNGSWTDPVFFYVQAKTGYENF

αIR3 antibody
percent competition [1]: 90 to 100%
percent competition [2]: 90 to 100%
% IGF-1 (at 320 nM) bound to IGF-1R at saturating antibody concentrations [3]: 23%
IC50 [3]: 4.9 nM
